Blank lines part the entries; values can stand above or below the binder they belong to.
Assays:
Assay in all cases: holdup assay
Set-up in all cases: key: below the threshold = too weak to quantify, mostly under pKd 3.1 to 4
Conditions in all cases: plain residues with an end cap or a label only (N-terminal biotin on a linker: ado-ado)
TJP1_2, Q07157 = biological target: TJP1_2, Q07157
GORASP2, Q9H8Y8 = biological target: GORASP2, Q9H8Y8
IL16_3, Q14005 = biological target: IL16_3, Q14005
LNX1_2, Q8TBB1 = biological target: LNX1_2, Q8TBB1
Sequence of LNX1_2, Q8TBB1 (Q8TBB1 371-470): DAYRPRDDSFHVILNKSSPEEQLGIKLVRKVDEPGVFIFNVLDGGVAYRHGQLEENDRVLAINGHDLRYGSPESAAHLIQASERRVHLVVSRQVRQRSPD

MPDZ_12, O75970 = biological target: T1, MPDZ_12, O75970
T1 sequence (O75970 1857-1958, limits assumed, looked up): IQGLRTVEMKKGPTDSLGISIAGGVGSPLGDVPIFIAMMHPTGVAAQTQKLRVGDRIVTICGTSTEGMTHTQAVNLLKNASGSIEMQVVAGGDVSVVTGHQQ

SNTG2, Q9NY99 = biological target: T2, SNTG2, Q9NY99
T2 sequence (Q9NY99 68-166, limits assumed, looked up): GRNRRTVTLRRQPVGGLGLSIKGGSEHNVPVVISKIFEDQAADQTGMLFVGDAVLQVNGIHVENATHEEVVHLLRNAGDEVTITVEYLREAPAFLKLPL

PARD3_3, Q8TEW0 = biological target: PARD3_3, Q8TEW0
Sequence of PARD3_3, Q8TEW0 (Q8TEW0 582-685): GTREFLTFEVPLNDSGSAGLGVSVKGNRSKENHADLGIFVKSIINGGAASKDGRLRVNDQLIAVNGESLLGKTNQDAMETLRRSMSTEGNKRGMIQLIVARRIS

SCRIB_2, Q14160 = biological target: SCRIB_2, Q14160
Sequence of SCRIB_2, Q14160 (Q14160 857-960): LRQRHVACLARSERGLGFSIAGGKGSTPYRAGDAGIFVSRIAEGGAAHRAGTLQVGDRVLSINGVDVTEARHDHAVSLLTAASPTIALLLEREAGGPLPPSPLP

DVL3, Q92997 = biological target: T3, DVL3, Q92997
T3 sequence (Q92997 244-331, limits assumed, looked up): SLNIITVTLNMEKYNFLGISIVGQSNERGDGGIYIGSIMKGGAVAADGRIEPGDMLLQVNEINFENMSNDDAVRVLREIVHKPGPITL

DLG3_1, Q92796 = biological target: T4, DLG3_1, Q92796
T4 sequence (Q92796 125-227, limits assumed, looked up): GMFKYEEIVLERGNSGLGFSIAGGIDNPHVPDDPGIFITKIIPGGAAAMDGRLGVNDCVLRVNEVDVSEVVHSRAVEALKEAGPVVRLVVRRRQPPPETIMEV

PARD3B_1, Q8TEW8 = biological target: T5, PARD3B_1, Q8TEW8
T5 sequence (Q8TEW8 196-299, limits assumed, looked up): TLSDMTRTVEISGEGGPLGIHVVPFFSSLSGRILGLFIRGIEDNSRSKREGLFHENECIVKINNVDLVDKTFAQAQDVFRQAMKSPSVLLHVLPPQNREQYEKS

SHANK1, Q9Y566 = biological target: T6, SHANK1, Q9Y566
T6 sequence (Q9Y566 658-767, limits assumed, looked up): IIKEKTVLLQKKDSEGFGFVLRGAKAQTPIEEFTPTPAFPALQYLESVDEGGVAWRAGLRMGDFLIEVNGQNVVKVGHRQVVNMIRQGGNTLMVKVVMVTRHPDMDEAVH

RHPN1, Q8TCX5 = biological target: T7, RHPN1, Q8TCX5
T7 sequence (Q8TCX5 508-602, limits assumed, looked up): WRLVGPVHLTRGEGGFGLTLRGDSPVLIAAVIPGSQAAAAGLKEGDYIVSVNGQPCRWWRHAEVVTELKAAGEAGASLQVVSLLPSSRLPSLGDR

GRID2IP_2, A4D2P6 = biological target: GRID2IP_2, A4D2P6
Sequence of GRID2IP_2, A4D2P6 (A4D2P6 272-370): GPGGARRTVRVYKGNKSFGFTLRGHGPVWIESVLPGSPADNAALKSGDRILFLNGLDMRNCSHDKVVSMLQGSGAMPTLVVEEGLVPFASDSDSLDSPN

DLG3_2, Q92796 = biological target: T8, DLG3_2, Q92796
T8 sequence (Q92796 221-321, limits assumed, looked up): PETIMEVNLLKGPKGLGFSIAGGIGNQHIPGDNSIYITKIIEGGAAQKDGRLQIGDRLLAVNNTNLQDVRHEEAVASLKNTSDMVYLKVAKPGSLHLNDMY

LNX1_1, Q8TBB1 = biological target: LNX1_1, Q8TBB1
Sequence of LNX1_1, Q8TBB1 (Q8TBB1 261-371): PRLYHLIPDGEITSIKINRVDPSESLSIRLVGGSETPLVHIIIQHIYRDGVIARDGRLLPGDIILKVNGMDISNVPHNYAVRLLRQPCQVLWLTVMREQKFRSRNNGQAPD

APBA2_1, Q99767 = biological target: T9, APBA2_1, Q99767
T9 sequence (Q99767 563-664, limits assumed, looked up): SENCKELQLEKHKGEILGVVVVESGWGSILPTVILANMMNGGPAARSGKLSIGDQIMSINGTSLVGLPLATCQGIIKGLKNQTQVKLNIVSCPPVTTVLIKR

Inadl_8, Q8NI35 = biological target: Inadl_8, Q8NI35
Sequence of Inadl_8, Q8NI35 (Q8NI35 1425-1530): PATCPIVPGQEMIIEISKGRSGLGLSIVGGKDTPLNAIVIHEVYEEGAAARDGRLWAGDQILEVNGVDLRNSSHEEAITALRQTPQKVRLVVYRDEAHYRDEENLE

GRIP2_4, Q9C0E4 = biological target: GRIP2_4, Q9C0E4
Sequence of GRIP2_4, Q9C0E4 (Q9C0E4 446-548): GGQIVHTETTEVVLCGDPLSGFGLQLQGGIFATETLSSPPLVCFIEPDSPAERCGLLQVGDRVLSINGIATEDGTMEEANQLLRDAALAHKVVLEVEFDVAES

MAST2, Q6P0Q8 = biological target: MAST2, Q6P0Q8
Sequence of MAST2, Q6P0Q8 (Q6P0Q8 1099-1202): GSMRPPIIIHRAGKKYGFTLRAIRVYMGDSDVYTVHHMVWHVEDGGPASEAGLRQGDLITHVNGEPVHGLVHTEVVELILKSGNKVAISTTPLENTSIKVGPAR

GOPC, Q9HD26 = biological target: GOPC, Q9HD26
SCRIB_1, Q14160 = biological target: SCRIB_1, Q14160
Sequence of SCRIB_1, Q14160 (Q14160 718-814): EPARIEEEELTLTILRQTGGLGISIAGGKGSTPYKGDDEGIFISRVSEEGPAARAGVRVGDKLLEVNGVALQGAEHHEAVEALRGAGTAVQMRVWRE

NHERF3_4, Q5T2W1 = biological target: T10, NHERF3_4, Q5T2W1
T10 sequence (Q5T2W1 373-468, limits assumed, looked up): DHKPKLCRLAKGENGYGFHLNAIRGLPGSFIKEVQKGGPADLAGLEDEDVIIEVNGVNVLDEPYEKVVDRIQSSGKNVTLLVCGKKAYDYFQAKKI

Inadl_6, Q8NI35 = biological target: Inadl_6, Q8NI35
Sequence of Inadl_6, Q8NI35 (Q8NI35 1058-1167): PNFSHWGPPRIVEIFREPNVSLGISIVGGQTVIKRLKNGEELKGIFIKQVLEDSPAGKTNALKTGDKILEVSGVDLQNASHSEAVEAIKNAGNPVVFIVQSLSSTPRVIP

MAST1, Q9Y2H9 = biological target: MAST1, Q9Y2H9
Sequence of MAST1, Q9Y2H9 (Q9Y2H9 962-1065): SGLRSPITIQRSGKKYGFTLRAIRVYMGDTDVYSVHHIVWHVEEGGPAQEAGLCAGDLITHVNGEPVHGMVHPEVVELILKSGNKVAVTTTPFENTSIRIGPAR

FRMPD2_1, Q68DX3 = biological target: FRMPD2_1, Q68DX3
Sequence of FRMPD2_1, Q68DX3 (Q68DX3 770-861): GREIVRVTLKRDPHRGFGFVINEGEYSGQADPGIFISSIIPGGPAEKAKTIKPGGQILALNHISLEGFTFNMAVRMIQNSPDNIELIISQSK

LIMK2, P53671 = biological target: LIMK2, P53671
Sequence of LIMK2, P53671 (P53671 143-248): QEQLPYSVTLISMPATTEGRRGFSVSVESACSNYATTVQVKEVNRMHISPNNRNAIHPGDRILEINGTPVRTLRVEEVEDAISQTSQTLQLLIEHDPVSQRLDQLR

Sequence of TJP1_2, Q07157 (Q07157 181-274): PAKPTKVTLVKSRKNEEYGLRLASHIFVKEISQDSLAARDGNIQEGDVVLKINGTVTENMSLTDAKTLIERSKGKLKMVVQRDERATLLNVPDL
Sequence of IL16_3, Q14005 (Q14005 1107-1207): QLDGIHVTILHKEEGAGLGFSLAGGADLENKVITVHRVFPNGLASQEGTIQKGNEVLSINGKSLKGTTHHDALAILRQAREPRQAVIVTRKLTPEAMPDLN

pKd (TJP1_2, Q07157): below the threshold | pKd (GORASP2, Q9H8Y8): below the threshold | pKd (IL16_3, Q14005): below the threshold | pKd (LNX1_2, Q8TBB1): below the threshold | pKd (MPDZ_12, O75970): below the threshold | pKd (SNTG2, Q9NY99): below the threshold | pKd (PARD3_3, Q8TEW0): below the threshold | pKd (SCRIB_2, Q14160): below the threshold | pKd (DVL3, Q92997): below the threshold | pKd (DLG3_1, Q92796): below the threshold | pKd (PARD3B_1, Q8TEW8): below the threshold | pKd (SHANK1, Q9Y566): below the threshold | pKd (RHPN1, Q8TCX5): below the threshold | pKd (DLG3_2, Q92796): 4.07 | pKd (LNX1_1, Q8TBB1): below the threshold | pKd (APBA2_1, Q99767): below the threshold | pKd (Inadl_8, Q8NI35): 4.18 | pKd (GRIP2_4, Q9C0E4): below the threshold | pKd (MAST2, Q6P0Q8): 4.06 | pKd (GOPC, Q9HD26): below the threshold | pKd (SCRIB_1, Q14160): below the threshold | pKd (NHERF3_4, Q5T2W1): below the threshold | pKd (Inadl_6, Q8NI35): below the threshold | pKd (FRMPD2_1, Q68DX3): below the threshold | pKd (LIMK2, P53671): below the threshold
Binder: KSTTRSSSSC [NDE1, Q9NXR1;Q9NXR1-2]

pKd (TJP1_2, Q07157): below the threshold | pKd (GORASP2, Q9H8Y8): 3.87 | pKd (IL16_3, Q14005): 3.58 | pKd (LNX1_2, Q8TBB1): below the threshold | pKd (MPDZ_12, O75970): 3.75 | pKd (SNTG2, Q9NY99): below the threshold | pKd (PARD3_3, Q8TEW0): 3.48 | pKd (SCRIB_2, Q14160): 3.64 | pKd (DVL3, Q92997): below the threshold | pKd (DLG3_1, Q92796): below the threshold | pKd (PARD3B_1, Q8TEW8): 5.17 | pKd (SHANK1, Q9Y566): below the threshold | pKd (RHPN1, Q8TCX5): below the threshold | pKd (GRID2IP_2, A4D2P6): below the threshold | pKd (DLG3_2, Q92796): below the threshold | pKd (LNX1_1, Q8TBB1): below the threshold | pKd (APBA2_1, Q99767): below the threshold | pKd (Inadl_8, Q8NI35): below the threshold | pKd (GRIP2_4, Q9C0E4): below the threshold | pKd (MAST2, Q6P0Q8): 4.1 | pKd (GOPC, Q9HD26): below the threshold | pKd (SCRIB_1, Q14160): below the threshold | pKd (NHERF3_4, Q5T2W1): below the threshold | pKd (Inadl_6, Q8NI35): below the threshold | pKd (MAST1, Q9Y2H9): 4.17 | pKd (FRMPD2_1, Q68DX3): 3.62 | pKd (LIMK2, P53671): below the threshold
Binder: GDHLDRRVVL [VAC14, Q08AM6]

pKd (TJP1_2, Q07157): 3.51 | pKd (GORASP2, Q9H8Y8): 3.84 | pKd (IL16_3, Q14005): below the threshold | pKd (LNX1_2, Q8TBB1): below the threshold | pKd (MPDZ_12, O75970): below the threshold | pKd (SNTG2, Q9NY99): below the threshold | pKd (PARD3_3, Q8TEW0): below the threshold | pKd (SCRIB_2, Q14160): 3.55 | pKd (DVL3, Q92997): 3.58 | pKd (DLG3_1, Q92796): 3.72 | pKd (PARD3B_1, Q8TEW8): 3.95 | pKd (SHANK1, Q9Y566): 4.81 | pKd (RHPN1, Q8TCX5): 4.13 | pKd (GRID2IP_2, A4D2P6): 4.69 | pKd (DLG3_2, Q92796): 4.01 | pKd (LNX1_1, Q8TBB1): 3.87 | pKd (APBA2_1, Q99767): below the threshold | pKd (Inadl_8, Q8NI35): 3.52 | pKd (GRIP2_4, Q9C0E4): below the threshold | pKd (MAST2, Q6P0Q8): 5.7 | pKd (GOPC, Q9HD26): 3.81 | pKd (SCRIB_1, Q14160): 3.83 | pKd (NHERF3_4, Q5T2W1): 4.67 | pKd (Inadl_6, Q8NI35): 3.57 | pKd (MAST1, Q9Y2H9): 4.69 | pKd (FRMPD2_1, Q68DX3): below the threshold | pKd (LIMK2, P53671): below the threshold
Binder: SKSLERATQL [COMMD3, Q9UBI1]

The remaining lines, values behind:

Binder: LRYARPADAL [PPP1R3G, B7ZBB8]
pKd (TJP1_2, Q07157): below the threshold | pKd (GORASP2, Q9H8Y8): below the threshold | pKd (IL16_3, Q14005): below the threshold | pKd (LNX1_2, Q8TBB1): below the threshold | pKd (MPDZ_12, O75970): below the threshold | pKd (SNTG2, Q9NY99): below the threshold | pKd (PARD3_3, Q8TEW0): below the threshold | pKd (SCRIB_2, Q14160): below the threshold | pKd (DVL3, Q92997): below the threshold | pKd (DLG3_1, Q92796): below the threshold | pKd (PARD3B_1, Q8TEW8): below the threshold | pKd (SHANK1, Q9Y566): below the threshold | pKd (RHPN1, Q8TCX5): below the threshold | pKd (GRID2IP_2, A4D2P6): below the threshold | pKd (DLG3_2, Q92796): below the threshold | pKd (LNX1_1, Q8TBB1): below the threshold | pKd (APBA2_1, Q99767): below the threshold | pKd (Inadl_8, Q8NI35): below the threshold | pKd (GRIP2_4, Q9C0E4): below the threshold | pKd (MAST2, Q6P0Q8): below the threshold | pKd (GOPC, Q9HD26): below the threshold | pKd (SCRIB_1, Q14160): below the threshold | pKd (NHERF3_4, Q5T2W1): below the threshold | pKd (Inadl_6, Q8NI35): below the threshold | pKd (MAST1, Q9Y2H9): 3.73 | pKd (FRMPD2_1, Q68DX3): below the threshold | pKd (LIMK2, P53671): below the threshold

Binder: QELLEYETTV [XKR7, Q5GH72]
pKd (TJP1_2, Q07157): below the threshold | pKd (GORASP2, Q9H8Y8): 3.8 | pKd (IL16_3, Q14005): below the threshold | pKd (LNX1_2, Q8TBB1): 3.73 | pKd (MPDZ_12, O75970): below the threshold | pKd (SNTG2, Q9NY99): 4.69 | pKd (PARD3_3, Q8TEW0): 4.19 | pKd (SCRIB_2, Q14160): 4.42 | pKd (DVL3, Q92997): below the threshold | pKd (DLG3_1, Q92796): 4.51 | pKd (PARD3B_1, Q8TEW8): below the threshold | pKd (SHANK1, Q9Y566): 4.44 | pKd (RHPN1, Q8TCX5): 4.66 | pKd (GRID2IP_2, A4D2P6): 3.81 | pKd (DLG3_2, Q92796): 4.85 | pKd (LNX1_1, Q8TBB1): 4.57 | pKd (APBA2_1, Q99767): below the threshold | pKd (Inadl_8, Q8NI35): 3.59 | pKd (GRIP2_4, Q9C0E4): below the threshold | pKd (MAST2, Q6P0Q8): 5.46 | pKd (GOPC, Q9HD26): 3.96 | pKd (SCRIB_1, Q14160): 4.41 | pKd (NHERF3_4, Q5T2W1): below the threshold | pKd (Inadl_6, Q8NI35): 4.01 | pKd (MAST1, Q9Y2H9): 4.97 | pKd (FRMPD2_1, Q68DX3): below the threshold | pKd (LIMK2, P53671): below the threshold

Binder: EYRKDNKVAA [LSM14A, Q8ND56;Q8ND56-2]
pKd (TJP1_2, Q07157): below the threshold | pKd (LNX1_2, Q8TBB1): below the threshold | pKd (SNTG2, Q9NY99): below the threshold | pKd (PARD3_3, Q8TEW0): below the threshold | pKd (SCRIB_2, Q14160): below the threshold | pKd (DVL3, Q92997): below the threshold | pKd (PARD3B_1, Q8TEW8): below the threshold | pKd (RHPN1, Q8TCX5): below the threshold | pKd (GRID2IP_2, A4D2P6): below the threshold | pKd (DLG3_2, Q92796): 4.23 | pKd (APBA2_1, Q99767): below the threshold | pKd (Inadl_8, Q8NI35): below the threshold | pKd (GRIP2_4, Q9C0E4): below the threshold | pKd (MAST2, Q6P0Q8): below the threshold | pKd (GOPC, Q9HD26): below the threshold | pKd (SCRIB_1, Q14160): below the threshold | pKd (NHERF3_4, Q5T2W1): below the threshold | pKd (Inadl_6, Q8NI35): below the threshold | pKd (MAST1, Q9Y2H9): below the threshold | pKd (LIMK2, P53671): below the threshold

Reference: PMC9482650, “Quantitative fragmentomics allow affinity mapping of interactomes” (Nature Communications, 2022)
